Measurements: patent US20090191584, “Transcriptional repression of sodium-iodide symporter in thyroid carcinoma” (UNIVERSITY OF KENTUCKY RESEARCH FOUNDATION, published 2009)

Target: PARP-1 (commercial) (Homo sapiens, UniProt P09874 SEQ:1-1013)
Assay: EMSA; 1.5 ug purified PARP-1, no shift
Settings: tags: Trevigen; label: 32P
Procedure: To evaluate whether purified PARP-1 is associated with NRBS, Applicants performed EMSA using commercial PARP-1 and radiolabeled Probe A (FIG. 18, lane 3). […] As PARP-1 was reported to bind to DNA using its N-terminal domain, the N-terminal DNA-binding domain (1-372 aa) from human PARP-1 were stably transfected into KAK-1 cells. Nuclear extract from multiple pooled positive clones from this transfection or a single positive clone from the same transfection experiment were incubated with labeled Probe A and subjected to EMSA (FIG. 18; lanes 6 & 10, respectively). The gel-shift bands produced were not appreciably different from those produced by nuclear extract from KAK-1 cells transfected with the empty vector (pCR3.1; lane 8) or those produced by parental KAK-1 nuclear extract (lane 2). Addition of cold Probe A, in each case, competed similarly against their respective matched lanes (lanes 3, 7, 9, & 11).

Sequence of PARP-1 (commercial) (P09874 2-1014): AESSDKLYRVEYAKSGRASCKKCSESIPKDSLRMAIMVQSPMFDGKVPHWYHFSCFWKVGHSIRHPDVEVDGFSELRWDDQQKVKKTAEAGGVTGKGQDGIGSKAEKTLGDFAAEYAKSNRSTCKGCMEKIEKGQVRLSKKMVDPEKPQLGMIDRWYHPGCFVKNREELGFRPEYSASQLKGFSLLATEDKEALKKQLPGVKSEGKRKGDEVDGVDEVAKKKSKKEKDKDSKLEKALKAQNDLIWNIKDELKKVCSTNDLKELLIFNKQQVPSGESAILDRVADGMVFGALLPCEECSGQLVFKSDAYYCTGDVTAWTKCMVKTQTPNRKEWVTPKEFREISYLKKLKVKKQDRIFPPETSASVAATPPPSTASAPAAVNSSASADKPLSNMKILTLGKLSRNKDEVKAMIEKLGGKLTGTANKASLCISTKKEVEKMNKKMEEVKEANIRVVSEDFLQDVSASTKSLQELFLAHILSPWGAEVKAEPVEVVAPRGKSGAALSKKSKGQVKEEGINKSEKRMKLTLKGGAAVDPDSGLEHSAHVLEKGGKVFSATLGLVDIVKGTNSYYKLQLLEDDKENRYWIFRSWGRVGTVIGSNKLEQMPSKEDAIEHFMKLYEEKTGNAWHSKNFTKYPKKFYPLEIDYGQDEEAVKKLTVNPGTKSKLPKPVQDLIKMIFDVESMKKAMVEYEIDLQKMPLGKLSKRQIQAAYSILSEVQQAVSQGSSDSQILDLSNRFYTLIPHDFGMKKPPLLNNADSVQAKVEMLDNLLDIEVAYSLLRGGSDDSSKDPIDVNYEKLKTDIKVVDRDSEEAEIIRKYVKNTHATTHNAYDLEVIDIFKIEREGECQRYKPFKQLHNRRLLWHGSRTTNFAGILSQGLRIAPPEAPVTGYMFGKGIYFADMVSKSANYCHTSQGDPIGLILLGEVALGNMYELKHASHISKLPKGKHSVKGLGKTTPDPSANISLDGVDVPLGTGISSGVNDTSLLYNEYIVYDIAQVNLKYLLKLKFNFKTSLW

B1: Probe A (-684 to -565 hNIS) (dsDNA)
DNA 1: AAGCAGGCTGTGCAGGCTTGGATAGTGACATGCCCTTTTTGAGCCTCAATTTCCCCACCTGTCAACAGCAGACAGTGACAGCTGTGATCAGGGGATCACAGTGCATGGGGATGGGTGTGT
DNA 2: ACACACCCATCCCCATGCACTGTGATCCCCTGATCACAGCTGTCACTGTCTGCTGTTGACAGGTGGGGAAATTGAGGCTCAAAAAGGGCATGTCACTATCCAAGCCTGCACAGCCTGCTT
**Q.** Does B1 bind?
**A.** no binding
